Laboratory results: PMC12455940

Target: leader of the capsid (LC) protein from Feline calicivirus (Feline calicivirus, Urbana strain)
Test: non-reducing SDS-PAGE and western blot; total protein extracts (RIPA) of FCV-infected CrFK cells, MOI of 5, 1 to 9 hpi; Laemmli buffer without β-ME; detected with anti-LC serum; also cells untreated or treated with 5 µM 16F16

For “leader of the capsid (LC) protein from Feline calicivirus (natural protein)”, the stoichiometry N was 2.
